Measurements taken from patent US10920254B2, “Methods and materials for producing 5 and 7-carbon monomers” (INVISTA North America S.á.r.l., priority 2015, dated 2021).

B1: SEQ ID NO: 3: Mycobacterium smegmatis carboxylate reductase, N-terminal HIS tagged (protein, listed as Mycobacterium smegmatis)
chain: MTSDVHDATDGVTETALDDEQSTRRIAELYATDPEFAAAAPLPAVVDAAHKPGLRLAEILQTLFTGYGDRPALGYRARELATDEGGRTVTRLLPRFDTLTYAQVWSRVQAVAAALRHNFAQPIYPGDAVATIGFASPDYLTLDLVCAYLGLVSVPLQHNAPVSRLAPILAEVEPRILTVSAEYLDLAVESVRDVNSVSQLVVFDHHPEVDDHRDALARAREQLAGKGIAVTTLDAIADEGAGLPAEPIYTADHDQRLAMILYTSGSTGAPKGAMYTEAMVARLWTMSFITGDPTPVINVNFMPLNHLGGRIPISTAVQNGGTSYFVPESDMSTLFEDLALVRPTELGLVPRVADMLYQHHLATVDRLVTQGADELTAEKQAGAELREQVLGGRVITGFVSTAPLAAEMRAFLDITLGAHIVDGYGLTETGAVTRDGVIVRPPVIDYKLIDVPELGYFSTDKPYPRGELLVRSQTLTPGYYKRPEVTASVFDRDGYYHTGDVMAETAPDHLVYVDRRNNVLKLAQGEFVAVANLEAVFSGAALVRQIFVYGNSERSFLLAVVVPTPEALEQYDPAALKAALADSLQRTARDAELQSYEVPADFIVETEPFSAANGLLSGVGKLLRPNLKDRYGQRLEQMYADIAATQANQLRELRRAAATQPVIDTLTQAAATILGTGSEVASDAHFTDLGGDSLSALTLSNLLSDFFGFEVPVGTIVNPATNLAQLAQHIEAQRTAGDRRPSFTTVHGADATEIRASELTLDKFIDAETLRAAPGLPKVTTEPRTVLLSGANGWLGRFLTLQWLERLAPVGGTLITIVRGRDDAAARARLTQAYDTDPELSRRFAELADRHLRVVAGDIGDPNLGLTPEIWHRLAAEVDLVVHPAALVNHVLPYRQLFGPNVVGTAEVIKLALTERIKPVTYLSTVSVAMGIPDFEEDGDIRTVSPVRPLDGGYANGYGNSKWAGEVLLREAHDLCGLPVATFRSDMILAHPRYRGQVNVPDMFTRLLLSLLITGVAPRSFYIGDGERPRAHYPGLTVDFVAEAVTTLGAQQREGYVSYDVMNPHDDGISLDVFVDWLIRAGHPIDRVDDYDDWVRRFETALTALPEKRRAQTVLPLLHAFRAPQAPLRGAPEPTEVFHAAVRTAKVGPGDIPHLDEALIDKYIRDLREFGLI
modifications: N-terminal His tag
notes: Mycobacterium smegmatis carboxylate reductase, N-terminal HIS tagged
B2: SEQ ID NO: 7: Chromobacterium violaceum ω-transaminase, N-terminal HIS tagged (protein, listed as Chromobacterium violaceum)
chain: MQKQRTTSQWRELDAAHHLHPFTDTASLNQAGARVMTRGEGVYLWDSEGNKIIDGMAGLWCVNVGYGRKDFAEAARRQMEELPFYNTFFKTTHPAVVELSSLLAEVTPAGFDRVFYTNSGSESVDTMIRMVRRYWDVQGKPEKKTLIGRWNGYHGSTIGGASLGGMKYMHEQGDLPIPGMAHIEQPWWYKHGKDMTPDEFGVVAARWLEEKILEIGADKVAAFVGEPIQGAGGVIVPPATYWPEIERICRKYDVLLVADEVICGFGRTGEWFGHQHFGFQPDLFTAAKGLSSGYLPIGAVFVGKRVAEGLIAGGDFNHGFTYSGHPVCAAVAHANVAALRDEGIVQRVKDDIGPYMQKRWRETFSRFEHVDDVRGVGMVQAFTLVKNKAKRELFPDFGEIGTLCRDIFFRNNLIMRACGDHIVSAPPLVMTRAEVDEMLAVAERCLEEFEQTLKARGLA
modifications: N-terminal His tag
notes: Chromobacterium violaceum ω-transaminase, N-terminal HIS tagged
B3: SEQ ID NO: 9: Pseudomonas syringae ω-transaminase, N-terminal HIS tagged (protein, listed as Pseudomonas syringae)
chain: MSANNPQTLEWQALSSEHHLAPFSDYKQLKEKGPRIITRAEGVYLWDSEGNKILDGMSGLWCVAIGYGREELADAASKQMRELPYYNLFFQTAHPPVLELAKAISDIAPEGMNHVFFTGSGSEGNDTMLRMVRHYWALKGQPNKKTIISRVNGYHGSTVAGASLGGMTYMHEQGDLPIPGVVHIPQPYWFGEGGDMTPDEFGIWAAEQLEKKILELGVENVGAFIAEPIQGAGGVIVPPDSYWPKIKEILSRYDILFAADEVICGFGRTSEWFGSDFYGLRPDMMTIAKGLTSGYVPMGGLIVRDEIVAVLNEGGDFNHGFTYSGHPVAAAVALENIRILREEKIVERVRSETAPYLQKRLRELSDHPLVGEVRGVGLLGAIELVKDKTTRERYTDKGAGMICRTFCFDNGLIMRAVGDTMIIAPPLVISFAQIDELVEKARTCLDLTLAVLQG
modifications: N-terminal His tag
notes: Pseudomonas syringae ω-transaminase, N-terminal HIS tagged
B4: SEQ ID NO: 12: Vibrio fluvialis ω-transaminase, N-terminal HIS tagged (protein, listed as Vibrio fluvialis)
chain: MNKPQSWEARAETYSLYGFTDMPSLHQRGTVVVTHGEGPYIVDVNGRRYLDANSGLWNMVAGFDHKGLIDAAKAQYERFPGYHAFFGRMSDQTVMLSEKLVEVSPFDSGRVFYTNSGSEANDTMVKMLWFLHAAEGKPQKRKILTRWNAYHGVTAVSASMTGKPYNSVFGLPLPGFVHLTCPHYWRYGEEGETEEQFVARLARELEETIQREGADTIAGFFAEPVMGAGGVIPPAKGYFQAILPILRKYDIPVISDEVICGFGRTGNTWGCVTYDFTPDAIISSKNLTAGFFPMGAVILGPELSKRLETAIEAIEEFPHGFTASGHPVGCAIALKAIDVVMNEGLAENVRRLAPRFEERLKHIAERPNIGEYRGIGFMWALEAVKDKASKTPFDGNLSVSERIANTCTDLGLICRPLGQSVVLCPPFILTEAQMDEMFDKLEKALDKVFAEVA
modifications: N-terminal His tag
notes: Vibrio fluvialis ω-transaminase, N-terminal HIS tagged

Columns and labels:
Assay type in all cases: biochemical
[1] = ω-transaminase enzyme activity assay, reverse direction (7-aminoheptanoate to pimelate semialdehyde), L-alanine formation by RP-HPLC; settings: cell free extract; 10 mM 7-aminoheptanoate, 10 mM pyruvate, pH 7.5, 25° C., 4 h; FIG. 13
Protocol: (§1) A nucleotide sequence encoding an N-terminal His-tag was added to the nucleic acid sequences from Chromobacterium violaceum, Pseudomonas syringae, Rhodobacter sphaeroides, and Vibrio fluvialis encoding the ω-transaminases of SEQ ID NOs: 7, 9, 10, and 12, respectively (see FIGS. 6E-6F) such that N-terminal HIS tagged ω-transaminases could be produced. Each of the resulting modified genes was cloned into a pET21a expression vector under control of the T7 promoter and each expression vector was transformed into a BL21[DE3] E. coli host. The resulting recombinant E. coli strains were cultivated at 37° C. in a 250 mL shake flask culture containing 50 mL LB media and antibiotic selection pressure, with shaking at 230 rpm. Each culture was induced overnight at 16° C. using 1 mM IPTG.
(§2) The pellet from each induced shake flask culture was harvested via centrifugation. Each pellet was resuspended and lysed via sonication. The cell debris was separated from the supernatant via centrifugation and the cell free extract was used immediately in enzyme activity assays.
Enzyme activity assays in the reverse direction (i.e., 7-aminoheptanoate to pimelate semialdehyde) were performed in a buffer composed of a final concentration of 50 mM HEPES buffer (pH=7.5), 10 mM 7-aminoheptanoate, 10 mM pyruvate, and 100 μM pyridoxyl 5′ phosphate. Each enzyme activity assay reaction was initiated by adding cell free extract of the ω-transaminase gene product or the empty vector control to the assay buffer containing the 7-aminoheptanoate and incubated at 25° C. for 4 h, with shaking at 250 rpm. The formation of L-alanine from pyruvate was quantified via RP-HPLC.

[2] = ω-transaminase enzyme activity assay, forward direction (pimelate semialdehyde to 7-aminoheptanoate), pyruvate formation by RP-HPLC; settings: for acceptance of pimelate semialdehyde as substrate (conversion of L-alanine to pyruvate), confirmed against the empty vector control: cell free extract, 10 mM pimelate semialdehyde, 10 mM L-alanine, pH 7.5, 25° C., 4 h, FIG. 14; for reversibility of the ω-transaminase activity: pimelate semialdehyde accepted, 7-aminoheptanoate synthesized: conclusion from forward and reverse direction assays of Example 1
Protocol: as §1, §2
Enzyme activity in the forward direction (i.e., pimelate semialdehyde to 7-aminoheptanoate) was confirmed for the transaminases of SEQ ID NO: 9, SEQ ID NO: 10, and SEQ ID NO: 12. Enzyme activity assays were performed in a buffer composed of a final concentration of 50 mM HEPES buffer (pH=7.5), 10 mM pimelate semialdehyde, 10 mM L-alanine, and 100 μM pyridoxyl 5′ phosphate. Each enzyme activity assay reaction was initiated by adding a cell free extract of the ω-transaminase gene product or the empty vector control to the assay buffer containing the pimelate semialdehyde and incubated at 25° C. for 4 h, with shaking at 250 rpm. The formation of pyruvate was quantified via RP-HPLC.

[3] = ω-transaminase enzyme activity assay (7-aminoheptanol to 7-oxoheptanol), L-alanine formation by RP-HPLC; settings: for acceptance of 7-aminoheptanol as substrate (conversion of pyruvate to L-alanine), confirmed against the empty vector control: cell free extract, 10 mM 7-aminoheptanol, 10 mM pyruvate, pH 7.5, 25° C., 4 h, FIG. 17; for acceptance of 7-oxoheptanol as substrate forming 7-aminoheptanol: concluded from the reversibility of the ω-transaminase activity (Example 1)
Protocol: A nucleotide sequence encoding an N-terminal His-tag was added to the Chromobacterium violaceum, Pseudomonas syringae, and Rhodobacter sphaeroides nucleic acids encoding the ω-transaminases of SEQ ID NOs: 7, 9 and 10, respectively (see FIGS. 6E-6F), such that N-terminal HIS tagged ω-transaminases could be produced. The modified genes were cloned into a pET21a expression vector under the T7 promoter. Each expression vector was transformed into a BL21[DE3] E. coli host. Each resulting recombinant E. coli strain was cultivated at 37° C. in a 250 mL shake flask culture containing 50 mL LB media and antibiotic selection pressure, with shaking at 230 rpm. Each culture was induced overnight at 16° C. using 1 mM IPTG.
as §2
Enzyme activity assays in the reverse direction (i.e., 7-aminoheptanol to 7-oxoheptanol) were performed in a buffer composed of a final concentration of 50 mM HEPES buffer (pH=7.5), 10 mM 7-aminoheptanol, 10 mM pyruvate, and 100 μM pyridoxyl 5′ phosphate. Each enzyme activity assay reaction was initiated by adding cell free extract of the ω-transaminase gene product or the empty vector control to the assay buffer containing the 7-aminoheptanol and then incubated at 25° C. for 4 h, with shaking at 250 rpm. The formation of L-alanine was quantified via RP-HPLC.

[4] = carboxylate reductase enzyme activity assay (N7-acetyl-7-aminoheptanoate to N7-acetyl-7-aminoheptanal), NADPH consumption at 340 nm; settings: purified enzyme enhanced by gene product of sfp; 2 mM N7-acetyl-7-aminoheptanoate, 1 mM ATP, 1 mM NADPH, pH 7.5, room temperature, 20 min; FIG. 10
Protocol: The activity of each of the N-terminal His-tagged carboxylate reductases of SEQ ID NOs: 3, 5, and 6 (see Examples 2 and 3, and FIG. 6B, FIGS. 6D-6E) for converting N7-acetyl-7-aminoheptanoate to N7-acetyl-7-aminoheptanal was assayed in triplicate in a buffer composed of a final concentration of 50 mM HEPES buffer (pH=7.5), 2 mM N7-acetyl-7-aminoheptanoate, 10 mM MgCl2, 1 mM ATP, and 1 mM NADPH. The assays were initiated by adding purified carboxylate reductase and phosphopantetheine transferase or the empty vector control to the assay buffer containing the N7-acetyl-7-aminoheptanoate then incubated at room temperature for 20 min. The consumption of NADPH was monitored by absorbance at 340 nm.

Molecule	acceptance of 7-aminoheptanoate as substrate (conversion of pyruvate to L-alanine), confirmed against the empty vector control [1]	acceptance of pimelate semialdehyde as substrate (conversion of L-alanine to pyruvate), confirmed against the empty vector control [2]	reversibility of the ω-transaminase activity: pimelate semialdehyde accepted, 7-aminoheptanoate synthesized [2]	acceptance of 7-aminoheptanol as substrate (conversion of pyruvate to L-alanine), confirmed against the empty vector control [3]	acceptance of 7-oxoheptanol as substrate forming 7-aminoheptanol [3]	acceptance of N7-acetyl-7-aminoheptanoate as substrate (NADPH consumption), confirmed against the empty vector control [4]
SEQ ID NO: 10: Rhodobacter sphaeroides ω-transaminase, N-terminal HIS tagged	accepted 7-aminoheptanote as substrate	accepted pimelate semialdehyde as substrate	accepted pimelate semialdehyde as substrate and synthesized 7-aminoheptanoate as a reaction product	accepted 7-aminoheptanol as substrate	accept 7-oxoheptanol as substrate and form 7-aminoheptanol	–
B1	–	–	–	–	–	accepted N7-acetyl-7-aminoheptanoate as substrate
B2	accepted 7-aminoheptanote as substrate	–	accepted pimelate semialdehyde as substrate and synthesized 7-aminoheptanoate as a reaction product	accepted 7-aminoheptanol as substrate	accept 7-oxoheptanol as substrate and form 7-aminoheptanol	–
B3	accepted 7-aminoheptanote as substrate	accepted pimelate semialdehyde as substrate	accepted pimelate semialdehyde as substrate and synthesized 7-aminoheptanoate as a reaction product	accepted 7-aminoheptanol as substrate	accept 7-oxoheptanol as substrate and form 7-aminoheptanol	–
B4	accepted 7-aminoheptanote as substrate	accepted pimelate semialdehyde as substrate	accepted pimelate semialdehyde as substrate and synthesized 7-aminoheptanoate as a reaction product	–	–	–
